Results reported in patent US20110318339A1.

Key:
[1] = molecular target: rHuman IGF-1 sR, (IGF-1 sR), CF (Cat# 391-GR) (human) (UniProt P08069); experiment: Multispot ECL; Fab 0.01859 µM
[2] = molecular target: rHuman HGF R/c-MET/Fc Chimera, CF (Cat# 358-MT/CF) (human) (UniProt P08581); experiment: Multispot ECL; Fab 0.01859 µM
[3] = molecular target: rHuman ErbB2/Fc Chimera, CF (Cat# 1129-ER) (human) (UniProt P04626); experiment: Multispot ECL; Fab 0.01859 µM
[4] = molecular target: rHuman IGF-1 sR, (IGF-1 sR), CF (Cat# 391-GR) (human) (UniProt P08069); experiment: Multispot ECL; Fab 0.07438 µM
[5] = molecular target: rHuman HGF R/c-MET/Fc Chimera, CF (Cat# 358-MT/CF) (human) (UniProt P08581); experiment: Multispot ECL; Fab 0.07438 µM
[6] = molecular target: rHuman ErbB2/Fc Chimera, CF (Cat# 1129-ER) (human) (UniProt P04626); experiment: Multispot ECL; Fab 0.07438 µM
[7] = molecular target: rHuman IGF-1 sR, (IGF-1 sR), CF (Cat# 391-GR) (human) (UniProt P08069); experiment: Multispot ECL; Fab 0.2975 µM
[8] = molecular target: rHuman HGF R/c-MET/Fc Chimera, CF (Cat# 358-MT/CF) (human) (UniProt P08581); experiment: Multispot ECL; Fab 0.2975 µM
[9] = molecular target: rHuman ErbB2/Fc Chimera, CF (Cat# 1129-ER) (human) (UniProt P04626); experiment: Multispot ECL; Fab 0.2975 µM
[10] = molecular target: rHuman IGF-1 sR, (IGF-1 sR), CF (Cat# 391-GR) (human) (UniProt P08069); experiment: Multispot ECL; Fab 1.19 µM
[11] = molecular target: rHuman HGF R/c-MET/Fc Chimera, CF (Cat# 358-MT/CF) (human) (UniProt P08581); experiment: Multispot ECL; Fab 1.19 µM
[12] = molecular target: rHuman ErbB2/Fc Chimera, CF (Cat# 1129-ER) (human) (UniProt P04626); experiment: Multispot ECL; Fab 1.19 µM
[13] = molecular target: rHuman IGF-1 sR, (IGF-1 sR), CF (Cat# 391-GR) (human) (UniProt P08069); experiment: Multispot ECL; Fab […]
[14] = molecular target: rHuman HGF R/c-MET/Fc Chimera, CF (Cat# 358-MT/CF) (human) (UniProt P08581); experiment: Multispot ECL; Fab […]
[15] = molecular target: rHuman ErbB2/Fc Chimera, CF (Cat# 1129-ER) (human) (UniProt P04626); experiment: Multispot ECL; Fab […]
[16] = molecular target: rHuman IGF-1 sR, (IGF-1 sR), CF (Cat# 391-GR) (human) (UniProt P08069); experiment: Multispot ECL; Fab 0.096 µM
[17] = molecular target: rHuman HGF R/c-MET/Fc Chimera, CF (Cat# 358-MT/CF) (human) (UniProt P08581); experiment: Multispot ECL; Fab 0.096 µM
[18] = molecular target: rHuman ErbB2/Fc Chimera, CF (Cat# 1129-ER) (human) (UniProt P04626); experiment: Multispot ECL; Fab 0.096 µM
[19] = molecular target: rHuman IGF-1 sR, (IGF-1 sR), CF (Cat# 391-GR) (human) (UniProt P08069); experiment: Multispot ECL; Fab 0.0192 µM
[20] = molecular target: rHuman HGF R/c-MET/Fc Chimera, CF (Cat# 358-MT/CF) (human) (UniProt P08581); experiment: Multispot ECL; Fab 0.0192 µM
[21] = molecular target: rHuman ErbB2/Fc Chimera, CF (Cat# 1129-ER) (human) (UniProt P04626); experiment: Multispot ECL; Fab 0.0192 µM
[22] = molecular target: rHuman CD44/Fc Chimera, CF (Cat# 3660-CD) (human) (UniProt P16070); experiment: Multispot ECL; Fab 17.5 nM
[23] = molecular target: rHuman IGF-1 sR, (IGF-1 sR), CF (Cat# 391-GR) (human) (UniProt P08069); experiment: Multispot ECL; Fab 17.5 nM
[24] = molecular target: rHuman Notch-1/Fc Chimera, CF (Cat# 3647-TK) (human) (UniProt P46531); experiment: Multispot ECL; Fab 17.5 nM
[25] = molecular target: rHuman P-Cadherin/Fc Chimera, CF (Cat# 861-PC) (human) (UniProt P22223); experiment: Multispot ECL; Fab 17.5 nM
[26] = molecular target: rHuman ErbB2/Fc Chimera, CF (Cat# 1129-ER) (human) (UniProt P04626); experiment: Multispot ECL; Fab 17.5 nM
[27] = molecular target: rHuman CD44/Fc Chimera, CF (Cat# 3660-CD) (human) (UniProt P16070); experiment: Multispot ECL; Fab 70 nM
[28] = molecular target: rHuman IGF-1 sR, (IGF-1 sR), CF (Cat# 391-GR) (human) (UniProt P08069); experiment: Multispot ECL; Fab 70 nM
[29] = molecular target: rHuman Notch-1/Fc Chimera, CF (Cat# 3647-TK) (human) (UniProt P46531); experiment: Multispot ECL; Fab 70 nM
[30] = molecular target: rHuman P-Cadherin/Fc Chimera, CF (Cat# 861-PC) (human) (UniProt P22223); experiment: Multispot ECL; Fab 70 nM
[31] = molecular target: rHuman ErbB2/Fc Chimera, CF (Cat# 1129-ER) (human) (UniProt P04626); experiment: Multispot ECL; Fab 70 nM
[32] = molecular target: rHuman CD44/Fc Chimera, CF (Cat# 3660-CD) (human) (UniProt P16070); experiment: Multispot ECL; Fab 280 nM
[33] = molecular target: rHuman IGF-1 sR, (IGF-1 sR), CF (Cat# 391-GR) (human) (UniProt P08069); experiment: Multispot ECL; Fab 280 nM
[34] = molecular target: rHuman Notch-1/Fc Chimera, CF (Cat# 3647-TK) (human) (UniProt P46531); experiment: Multispot ECL; Fab 280 nM
[35] = molecular target: rHuman P-Cadherin/Fc Chimera, CF (Cat# 861-PC) (human) (UniProt P22223); experiment: Multispot ECL; Fab 280 nM
[36] = molecular target: rHuman ErbB2/Fc Chimera, CF (Cat# 1129-ER) (human) (UniProt P04626); experiment: Multispot ECL; Fab 280 nM
[37] = molecular target: rHuman CD44/Fc Chimera, CF (Cat# 3660-CD) (human) (UniProt P16070); experiment: Multispot ECL; Fab 4.375 nM
[38] = molecular target: rHuman IGF-1 sR, (IGF-1 sR), CF (Cat# 391-GR) (human) (UniProt P08069); experiment: Multispot ECL; Fab 4.375 nM
[39] = molecular target: rHuman Notch-1/Fc Chimera, CF (Cat# 3647-TK) (human) (UniProt P46531); experiment: Multispot ECL; Fab 4.375 nM
[40] = molecular target: rHuman P-Cadherin/Fc Chimera, CF (Cat# 861-PC) (human) (UniProt P22223); experiment: Multispot ECL; Fab 4.375 nM
[41] = molecular target: rHuman ErbB2/Fc Chimera, CF (Cat# 1129-ER) (human) (UniProt P04626); experiment: Multispot ECL; Fab 4.375 nM
[42] = molecular target: rHuman EGF R/Fc Chimera, CF (Cat# 344-ER) (human) (UniProt P00533); experiment: Multispot ECL; Fab […]
[43] = molecular target: rHuman Notch-1/Fc Chimera, CF (Cat# 3647-TK) (human) (UniProt P46531); experiment: Multispot ECL; Fab […]
[44] = molecular target: rHuman Erythropoietin R/Fc Chimera, CF (Cat# 963-ER) (human) (UniProt P19235); experiment: Multispot ECL; Fab […]
[45] = molecular target: rHuman P-Cadherin/Fc Chimera, CF (Cat# 861-PC) (human) (UniProt P22223); experiment: Multispot ECL; Fab […]
[46] = molecular target: rHuman EGF R/Fc Chimera, CF (Cat# 344-ER) (human) (UniProt P00533); experiment: Multispot ECL; Fab 0.03188 µM
[47] = molecular target: rHuman IGF-1 sR, (IGF-1 sR), CF (Cat# 391-GR) (human) (UniProt P08069); experiment: Multispot ECL; Fab 0.03188 µM
[48] = molecular target: rHuman Notch-1/Fc Chimera, CF (Cat# 3647-TK) (human) (UniProt P46531); experiment: Multispot ECL; Fab 0.03188 µM
[49] = molecular target: rHuman Erythropoietin R/Fc Chimera, CF (Cat# 963-ER) (human) (UniProt P19235); experiment: Multispot ECL; Fab 0.03188 µM
[50] = molecular target: rHuman P-Cadherin/Fc Chimera, CF (Cat# 861-PC) (human) (UniProt P22223); experiment: Multispot ECL; Fab 0.03188 µM
[51] = molecular target: rHuman EGF R/Fc Chimera, CF (Cat# 344-ER) (human) (UniProt P00533); experiment: Multispot ECL; Fab 0.51 µM
[52] = molecular target: rHuman IGF-1 sR, (IGF-1 sR), CF (Cat# 391-GR) (human) (UniProt P08069); experiment: Multispot ECL; Fab 0.51 µM
[53] = molecular target: rHuman Notch-1/Fc Chimera, CF (Cat# 3647-TK) (human) (UniProt P46531); experiment: Multispot ECL; Fab 0.51 µM
[54] = molecular target: rHuman Erythropoietin R/Fc Chimera, CF (Cat# 963-ER) (human) (UniProt P19235); experiment: Multispot ECL; Fab 0.51 µM
[55] = molecular target: rHuman P-Cadherin/Fc Chimera, CF (Cat# 861-PC) (human) (UniProt P22223); experiment: Multispot ECL; Fab 0.51 µM
[56] = molecular target: rHuman EGF R/Fc Chimera, CF (Cat# 344-ER) (human) (UniProt P00533); experiment: Multispot ECL; Fab 0.1275 µM
[57] = molecular target: rHuman IGF-1 sR, (IGF-1 sR), CF (Cat# 391-GR) (human) (UniProt P08069); experiment: Multispot ECL; Fab 0.1275 µM
[58] = molecular target: rHuman Notch-1/Fc Chimera, CF (Cat# 3647-TK) (human) (UniProt P46531); experiment: Multispot ECL; Fab 0.1275 µM
[59] = molecular target: rHuman Erythropoietin R/Fc Chimera, CF (Cat# 963-ER) (human) (UniProt P19235); experiment: Multispot ECL; Fab 0.1275 µM
[60] = molecular target: rHuman P-Cadherin/Fc Chimera, CF (Cat# 861-PC) (human) (UniProt P22223); experiment: Multispot ECL; Fab 0.1275 µM

rHuman Erythropoietin R/Fc Chimera, CF (Cat# 963-ER) (human), sequence (P19235 25-250, change not shown): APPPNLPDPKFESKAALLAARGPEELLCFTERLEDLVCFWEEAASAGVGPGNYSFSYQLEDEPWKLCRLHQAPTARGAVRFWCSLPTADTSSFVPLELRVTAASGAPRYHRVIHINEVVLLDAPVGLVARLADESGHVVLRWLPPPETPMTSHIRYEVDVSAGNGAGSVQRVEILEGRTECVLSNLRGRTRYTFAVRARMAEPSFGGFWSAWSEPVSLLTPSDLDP

Fab VH1-46_IGHD6-13*01_IGHJ4*01 & L2_IGKJ1*01
ECL signal [1]: 3780 | ECL signal [2]: 4570 | ECL signal [3]: 5530 | ECL signal [4]: 5800 | ECL signal [5]: 6610 | ECL signal [6]: 7550 | ECL signal [7]: 17400 | ECL signal [8]: 17400 | ECL signal [9]: 15100 | ECL signal [10]: 35200 | ECL signal [11]: 45500 | ECL signal [12]: 38400

Fab VH1-46_IGHD6-13*01_IGHJ4*01 & A27_IGKJ1*01
ECL signal [13]: 8930 | ECL signal [14]: 8000 | ECL signal [15]: 11300 | ECL signal [16]: 2450 | ECL signal [17]: 2330 | ECL signal [18]: 3360 | ECL signal [19]: 1830 | ECL signal [20]: 1580 | ECL signal [21]: 2310

Fab VH1-46_IGHD2-15*01_IGHJ2*01 & L12_IGKJ1*01
ECL signal [22]: 664 | ECL signal [23]: 626 | ECL signal [24]: 680 | ECL signal [25]: 949 | ECL signal [26]: 541 | ECL signal [27]: 1370 | ECL signal [28]: 1320 | ECL signal [29]: 1490 | ECL signal [30]: 1820 | ECL signal [31]: 1360 | ECL signal [32]: 4070 | ECL signal [33]: 3530 | ECL signal [34]: 4380 | ECL signal [35]: 5400 | ECL signal [36]: 3950 | ECL signal [37]: 424 | ECL signal [38]: 369 | ECL signal [39]: 480 | ECL signal [40]: 469 | ECL signal [41]: 384

Fab VH4-34_IGHD7-27*01_IGHJ4*01 & L5_IGKJ1*01
ECL signal [42]: 530 | ECL signal [13]: 564 | ECL signal [43]: 654 | ECL signal [44]: 566 | ECL signal [45]: 502 | ECL signal [46]: 694 | ECL signal [47]: 765 | ECL signal [48]: 849 | ECL signal [49]: 789 | ECL signal [50]: 775 | ECL signal [51]: 2360 | ECL signal [52]: 2240 | ECL signal [53]: 2770 | ECL signal [54]: 2620 | ECL signal [55]: 2390 | ECL signal [56]: 1060 | ECL signal [57]: 1040 | ECL signal [58]: 1500 | ECL signal [59]: 1070 | ECL signal [60]: 957
